The values that follow are results of earlier work, collected in publication PMC3124085.

The series addresses HIV-1 Gag p6 p6 (Human immunodeficiency virus 1) (UniProt O93182).

HIV-1 Gag p6 p6 (Human immunodeficiency virus 1), sequence (O93182 450-500): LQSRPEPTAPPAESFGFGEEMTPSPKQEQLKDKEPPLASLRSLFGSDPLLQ
TSG101 UEV, sequence (Q99816 1-148): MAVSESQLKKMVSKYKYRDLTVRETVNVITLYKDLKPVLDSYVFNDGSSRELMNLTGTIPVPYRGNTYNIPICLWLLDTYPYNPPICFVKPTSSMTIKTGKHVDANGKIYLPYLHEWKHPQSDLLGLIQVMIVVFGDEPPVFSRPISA

For TSG101 UEV (from UniProt Q99816), the Kd was 27 µM.

One may read the Kd as the equilibrium constant for the complex coming apart.
